B1: N142P|I144P|T404P, Q8GB52 (parent)
chain: MLKKVLSCCIAATFGIYSASSLAQSSVINSTENSQQPIAPLVLASSDDAITDRYIVVLKQPQMLMNDAAGLQQFTQQTVGLMANSFSIKTDDVFDSSIIGFVANLDALQLKQLRRDSRVEYIEQDQILSIDPVVSNEAVQSNAIWGLDRIDQRNLPLDRNYNANFDGFGVTAYVIDTGVNNNHEEFGGRSVSGYDFVDNDADSSDCNGHGTHVAGTIGGSQYGVAKNVNIVGVRVLSCSGSGTTSGVISGVDWVAQNASGPSVANMSLGGGQSTALDSAVQGAIQSGVSFMLAAGNSNADACNTSPARVPSGVTVGSTTSSDSRSSFSNWGSCVDLFAPGSQIKSAWYDGGYKTISGTSMATPHVAGVAALYLQENNGLTPLQLTGLLNSRASENKVSDTRGTTNKLLYSLADSGCEPDCGGPTPGPDPDGKLVSGVPVNGLSGSRGQKDYFYMDLQQGQQLTVVTIGGTGDADLYLRFGDKPTLNTWDCRPYRSGNSETCTVNVTQSGRYHVMLNAYSAYSGLTLQANF

Variants of: B1
Details: Vibrio sp. PA-44, pH 8.6, Thermal, structure 1SH7, whole UniProt chain shown
[1] = CD, Glycine 25 mM, NaCl and CaCl2 100 mM and 15 mM
[2] = CD, glycine, Nacl / Cacl2 100000 / 15000, transition: 2, reversible: no
[3] = DSC, Glycine 25 mM, NaCl and CaCl2 100 mM and 15 mM
[4] = DSC, glycine, Nacl / Cacl2 100000 / 15000, transition: 2, reversible: no

MLKKVLSCCIAATFGIYSASSLAQSSVINSTENSQQPIAPLVLASSDDAITDRYIVVLKQPQMLMNDAAGLQQFTQQTVGLMANSFSIKTDDVFDSSIIGFVANLDALQLKQLRRDSRVEYIEQDQILSIDPVVSNEAVQSPAPWGLDRIDQRNLPLDRNYNANFDGFGVTAYVIDTGVNNNHEEFGGRSVSGYDFVDNDADSSDCNGHGTHVAGTIGGSQYGVAKNVNIVGVRVLSCSGSGTTSGVISGVDWVAQNASGPSVANMSLGGGQSTALDSAVQGAIQSGVSFMLAAGNSNADACNTSPARVPSGVTVGSTTSSDSRSSFSNWGSCVDLFAPGSQIKSAWYDGGYKTISGTSMATPHVAGVAALYLQENNGLTPLQLTGLLNSRASENKVSDTRGTPNKLLYSLADSGCEPDCGGPTPGPDPDGKLVSGVPVNGLSGSRGQKDYFYMDLQQGQQLTVVTIGGTGDADLYLRFGDKPTLNTWDCRPYRSGNSETCTVNVTQSGRYHVMLNAYSAYSGLTLQANF [N142P I144P T404P]
Tm [1]: 69.2 °C
change of melting temperature, mutant - wild type (higher = more stable) [1]: 7.3 °C
Tm [2]: 69.2 °C
change of melting temperature, mutant - wild type (higher = more stable) [2]: 7.3 °C
Tm [3]: 73.6 °C
change of melting temperature, mutant - wild type (higher = more stable) [3]: 9.7 °C
unfolding enthalpy (calorimetric) [3]: 167 kcal/mol
Tm [4]: 73.6 °C
change of melting temperature, mutant - wild type (higher = more stable) [4]: 9.7 °C
unfolding enthalpy (calorimetric) [4]: 166 kcal/mol

MLKKVLSCCIAATFGIYSASSLAQSSVINSTENSQQPIAPLVLASSDDAITDRYIVVLKQPQMLMNDAAGLQQFTQQTVGLMANSFSIKTDDVFDSSIIGFVANLDALQLKQLRRDSRVEYIEQDQILSIDPVVSNEAVQSPAPWGLDRIDQRNLPLDRNYNANFDGFGVTAYVIDTGVNNNHEEFGGRSVSGYDFVDNDADSSDCNGHGTHVAGTIGGSQYGVAKNVNIVGVRVLSCSGSGTTSGVISGVDWVAQNASGPSVANMSLGGGQSTALDSAVQGAIQSGVSFMLAAGNSNADACNTSPARVPSGVTVGSTTSSDSRSSFSNWGSCVDLFAPGSQIKSAWYDGGYKTISGTSMATPHVAGVAALYLQENPGLTPLQLTGLLNSRASENKVSDTRGTPNKLLYSLADSGCEPDCGGPTPGPDPDGKLVSGVPVNGLSGSRGQKDYFYMDLQQGQQLTVVTIGGTGDADLYLRFGDKPTLNTWDCRPYRSGNSETCTVNVTQSGRYHVMLNAYSAYSGLTLQANF [N142P I144P N377P T404P]
Tm [1]: 72.1 °C
change of melting temperature, mutant - wild type (higher = more stable) [1]: 10.2 °C
Tm [2]: 72.1 °C
change of melting temperature, mutant - wild type (higher = more stable) [2]: 10.2 °C
Tm [3]: 77.2 °C
change of melting temperature, mutant - wild type (higher = more stable) [3]: 13.3 °C
unfolding enthalpy (calorimetric) [3]: 164 kcal/mol
Tm [4]: 77.2 °C
change of melting temperature, mutant - wild type (higher = more stable) [4]: 13.3 °C
unfolding enthalpy (calorimetric) [4]: 163 kcal/mol

Reference: FireProtDB (doi:10.1038/s41598-020-57873-3)
